Patent US20220298231A1 (AC IMMUNE, published 2022)
Numbering of substitutions follows the chain as printed. Where no end group is shown, it is not given here. The star is where a group is joined. Biotin = O=C1N[C@H]2[C@H](CS[C@H]2CCCCC(=O)*)N1; Ahx = NCCCCCC(=O)O

B1: ACI-8033-25A3-Ab1 (antibody, V domains shown)
VH: EVQLVESGGGLVQPKGSLKLSCAASGFSFNTYAMNWVRQAPGKGLEWVARIRSKSNNFATYYADSVKDRFTISRDESESMLYLQMNNLKTEDTAMYYCVRSFDYWGQGTTLTVSS
VL: DIKMTQSPSSMYASLGERVTITCKASQDINSYLSWFQQKPGKSPKTLIYRAKRLVDGVPSRFSGSGSGQDYSLTISSLEYEDMGIYYCLQYDEFPFTFGSGTKLEIK
notes: mouse hybridoma mAb; also called 917.25A3E9F6
B2: ACI-8033-1F8-Ab1 (antibody, V domains shown)
VH: DVQLQESGPGLVKPSQSLSLTCSVTGYSITSGFYWNWIRQFPGNKLEWMGYISYDGSNNYNPSLKNRISIIRDTSKNQFFLKLKSVTSEDTATYYCVRGDVDWGQGTTLTVSS
VL: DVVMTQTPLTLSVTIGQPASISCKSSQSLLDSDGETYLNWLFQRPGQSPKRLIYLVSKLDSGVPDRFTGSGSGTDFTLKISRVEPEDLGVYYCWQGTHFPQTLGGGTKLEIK
notes: mouse hybridoma mAb; also called 917.1F8D8E4
B3: hACI-7067-1101C8-Ab2_H2L1 (antibody, V domains shown)
VH: EVQLVESGGGLVQPGGSLKLSCAASGFSFNIYAMNWVRQAPGKGLEWVGRIRSKSNAYATYYAASVKGRFTISRDDSKNTLYLQMNNLKTEDTAVYYCVRVGLRFYAMDYWGQGTLVTVSS
VL: DVVMTQSPLSLPVTLGQPASISCRSSQSIVHSNANTYLEWYQQRPGQSPRLLIYKVSNRFSGVPDRFSGSGSGTDFTLKISRVEAEDLGVYYCFQGSQGPLTFGQGTKLEIK
notes: VH on human IgG1 constant, VL on human kappa constant
B4: hACI-7067-1101C8-Ab2_H9L1 (antibody, V domains shown)
VH: B3 VH with S28T, V99T
VL: B3 VL
notes: as for B3
B5: hACI-7067-1101C8-Ab2_H1L1 (antibody, V domains shown)
VH: B3 VH with G49A
VL: B3 VL
notes: as for B3
B6: hACI-7067-1101C8-Ab2_H3L1 (antibody, V domains shown)
VH: B3 VH with L81A
VL: B3 VL
notes: as for B3
B7: hACI-7067-1101C8-Ab2_H2L4 (antibody, V domains shown)
VH: B3 VH
VL: B3 VL with I29L, Y41F
notes: as for B3
B8: hACI-7067-1101C8-Ab2_H7L1 (antibody, V domains shown)
VH: B3 VH with G49A, M108T
VL: B3 VL
notes: as for B3
B9: hACI-7067-1101C8-Ab2_H2L3 (antibody, V domains shown)
VH: B3 VH
VL: B3 VL with Y41F
notes: as for B3
B10: hACI-7067-1101C8-Ab2_H10L1 (antibody, V domains shown)
VH: B3 VH with S28T, V99T, M108L
VL: B3 VL
notes: as for B3
B11: hACI-7067-1101C8-Ab2_H3L4 (antibody, V domains shown)
VH: B3 VH with L81A
VL: B3 VL with I29L, Y41F
notes: as for B3
B12: hACI-7067-1101C8-Ab2_H4L1 (antibody, V domains shown)
VH: B3 VH with S28T
VL: B3 VL
notes: as for B3
B13: hACI-7067-1101C8-Ab2_H4L4 (antibody, V domains shown)
VH: B3 VH with S28T
VL: B3 VL with I29L, Y41F
notes: as for B3
B14: hACI-7067-1101C8-Ab2_H5L1 (antibody, V domains shown)
VH: B3 VH with V99T
VL: B3 VL
notes: as for B3
B15: hACI-7067-1101C8-Ab2_H1L4 (antibody, V domains shown)
VH: B3 VH with G49A
VL: B3 VL with I29L, Y41F
notes: as for B3
B16: hACI-7067-1101C8-Ab2_H9L2 (antibody, V domains shown)
VH: B3 VH with S28T, V99T
VL: B3 VL with I29L
notes: as for B3
B17: hACI-7067-1101C8-Ab2_H8L1 (antibody, V domains shown)
VH: B3 VH with V99T, M108L
VL: B3 VL
notes: as for B3
B18: hACI-7067-1101C8-Ab2_H12L1 (antibody, V domains shown)
VH: B3 VH with S28T, L81A, V99T, M108L
VL: B3 VL
notes: as for B3
B19: hACI-7067-1101C8-Ab2_H3L2 (antibody, V domains shown)
VH: B3 VH with L81A
VL: B3 VL with I29L
notes: as for B3
B20: hACI-7067-1101C8-Ab2_H11L1 (antibody, V domains shown)
VH: B3 VH with S28T, L81A, V99T
VL: B3 VL
notes: as for B3
B21: hACI-7067-1101C8-Ab2_H5L3 (antibody, V domains shown)
VH: B3 VH with V99T
VL: B3 VL with Y41F
notes: as for B3
B22: hACI-7067-1101C8-Ab2_H5L4 (antibody, V domains shown)
VH: B3 VH with V99T
VL: B3 VL with I29L, Y41F
notes: as for B3
B23: hACI-7067-1101C8-Ab2_H12L2 (antibody, V domains shown)
VH: B3 VH with S28T, L81A, V99T, M108L
VL: B3 VL with I29L
notes: as for B3
B24: hACI-7067-1101C8-Ab2_H11L2 (antibody, V domains shown)
VH: B3 VH with S28T, L81A, V99T
VL: B3 VL with I29L
notes: as for B3
B25: hACI-7067-1101C8-Ab2_H10L2 (antibody, V domains shown)
VH: B3 VH with S28T, V99T, M108L
VL: B3 VL with I29L
notes: as for B3
B26: hACI-7067-1101C8-Ab2_H5L2 (antibody, V domains shown)
VH: B3 VH with V99T
VL: B3 VL with I29L
notes: as for B3
B27: hACI-7067-1101C8-Ab2_H6L1 (antibody, V domains shown)
VH: B3 VH with G49A, M108S
VL: B3 VL
notes: as for B3
B28: hACI-7067-1101C8-Ab2_H2L2 (antibody, V domains shown)
VH: B3 VH
VL: B3 VL with I29L
notes: as for B3
B29: hACI-7067-1101C8-Ab2_H4L2 (antibody, V domains shown)
VH: B3 VH with S28T
VL: B3 VL with I29L
notes: as for B3
B30: hACI-7067-1101C8-Ab2_H3L3 (antibody, V domains shown)
VH: B3 VH with L81A
VL: B3 VL with Y41F
notes: as for B3
B31: hACI-7067-1101C8-Ab2_H1L2 (antibody, V domains shown)
VH: B3 VH with G49A
VL: B3 VL with I29L
notes: as for B3
B32: hACI-7067-1101C8-Ab2_H4L3 (antibody, V domains shown)
VH: B3 VH with S28T
VL: B3 VL with Y41F
notes: as for B3
B33: hACI-7067-1101C8-Ab2_H1L3 (antibody, V domains shown)
VH: B3 VH with G49A
VL: B3 VL with Y41F
notes: as for B3

Key:
[1] = biological target: T1, 82-96aa; experiment: 15-mer peptide ELISA;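 further: indirect ELISA of hybridoma supernatant antibodies (1/100, 1 h) binding immobilized 15-mer peptides spanning human alpha-synuclein 1-140 on streptavidin plates, read as optical density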
T1 construct: also called alpha-synuclein peptide 82-96
T1 peptide: {Biotin-Ahx}-VEGAGSIAAATGFVK
Experimental: (§1) Epitope mapping for the antibodies derived from stable hybridoma clones was determined using an indirect ELISA on a library of 15-mer peptides covering the entire sequence of human alpha-synuclein from 1 to 140aa. […] Results are expressed as optical density (O.D.). Each bar represents data for an individual antibody.
(§2) Serum-free supernatants were harvested from stable hybridomas. The supernatants containing antibodies of interest were then screened by an indirect ELISA assay to determine epitopes. Epitopes were first determined using a library of 15-mer peptides covering the entire sequence of human alpha-synuclein protein, spanning amino acids (aa) 1-140 with 9aa offset and 6aa overlap. […] Briefly, streptavidin-coated ELISA plates were blocked overnight at 4° C. […] Plates were washed with PBS/0.05% Tween® 20 and then incubated with the hybridoma supernatants at 1/100 dilution for 1 hour at 25° C. […] After final wash, plates were incubated 2 hours at 25° C. with alkaline phosphatase substrate (p-nitrophenyl phosphate disodium hexahydrate; pNPP, S0942, Sigma) and read the absorbance optical density (O.D.) signal at 405 nm using an ELISA plate reader (Tecan, Switzerland).

[2] = biological target: T2, 100-114aa; experiment: 15-mer peptide ELISA;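 further: indirect ELISA of hybridoma supernatant antibodies (1/100, 1 h) binding immobilized 15-mer peptides spanning human alpha-synuclein 1-140 on streptavidin plates, read as optical density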
T2 peptide: {Biotin-Ahx}-LGKNEEGAPQEGILE
Experimental: as §1, §2

[3] = biological target: T3, 109-123aa; experiment: 15-mer peptide ELISA;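 further: indirect ELISA of hybridoma supernatant antibodies (1/100, 1 h) binding immobilized 15-mer peptides spanning human alpha-synuclein 1-140 on streptavidin plates, read as optical density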
T3 peptide: {Biotin-Ahx}-QEGILEDMPVDPDNE
Experimental: as §1, §2

[4] = biological target: T4, 91-105aa; experiment: 15-mer peptide ELISA;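 further: indirect ELISA of hybridoma supernatant antibodies (1/100, 1 h) binding immobilized 15-mer peptides spanning human alpha-synuclein 1-140 on streptavidin plates, read as optical density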
T4 construct: also called alpha-synuclein peptide 91-105
T4 peptide: {Biotin-Ahx}-ATGFVKKDQLGKNEE
Experimental: as §1, §2

[5] = biological target: T5, human full-length alpha-synuclein (human, UniProt P37840 1-140); experiment: SPR, 100 nM monomer, relative to chimeric;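 further: SPR with antibody variants captured via anti-human Fc IgG on an amine-coupled chip, isotype IgG1 reference channel subtracted, dissociation rate fitted by 1:1 or heterogeneous ligand model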
Experimental: (§3) Flow channels (Fc) 1-8 were activated with a fresh solution of EDC/NHS (Amine Coupling Kit, 1:1 ratio of both reagents, GE Healthcare Life Sciences, BR100050). […] The chip was deactivated by 1 M ethanolamine-HCl (GE Healthcare Life Sciences, BR100050) at a flow rate of 10 μL/min for 420 s.
(§4) A human IgG1 isotype control diluted in running buffer 1×HBS-EP+ (GE Healthcare Life Sciences, BR100669) was captured onto Fc1 via anti-human Fc IgG at a flow rate of 10 μL/min. […] 10 mM glycine pH 1.5 as regeneration buffer was injected following every dissociation phase.
(§5) The data for reference channel Fc1 and buffer channel were subtracted to generate the sensorgrams. The experimental data was fitted by 1:1 binding model or heterogeneous ligand model.

[6] = biological target: T6, alpha-synuclein fibrils (Homo sapiens (Human), UniProt P37840 1-140); experiment: SPR, 450 nM aggregates, relative to chimeric;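 further: surface plasmon resonance with anti-human Fc capture, human IgG1 isotype control channel and buffer run subtracted, dissociation rates fitted by 1:1 or heterogeneous ligand binding model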
Experimental: as §3, §4, §5

[7] = biological target: T5, human full-length alpha-synuclein; experiment: SPR, mAb captured, steady-state fit
Experimental: (§6) Non-covalent immobilization of alpha-synuclein antibodies was performed using a target immobilization method of 200 response units (RU). […] Binding affinity of alpha-synuclein antibodies to monomeric or fibrillar alpha-synuclein species was performed using a single-cycle kinetics method. […] A dissociation phase of 900 sec followed the final 50 nM injection. Regeneration of the sensor to the goat anti-human antibody layer was achieved using 3 regenerations of 10 mM Glycine pH 1.7. […] Regeneration of the sensor to the goat anti-human antibody layer was achieved using 3 regenerations of 10 mM Glycine pH 1.7. Results obtained from single-cycle kinetics were evaluated by Biacore K8 evaluation software with 1:1 binding homogenous Langmuir model (with a global Rmax) with Cycle 5 as a blank subtraction. The following kinetic parameters were obtained: on-rate (ka), off-rate (kd), affinity constant (KD, ratio of kd by ka), maximum response (Rmax), and goodness of fit (Chi2).
(§7) Kinetic constants were determined from 1:1 homogenous binding models for binding versus the aggregated form, while a steady state fit was used to determine KD values versus the monomeric form of alpha-synuclein.

[8] = biological target: T6, alpha-synuclein fibrils; experiment: SPR, mAb captured, 1:1 model
Experimental: as §6, §7

Binder	Relative koff [5]	Relative koff [6]	Kd [7] [nM]	also measured
B1				binding result [1]: no binding (tested: supernatant 1/100); binding result [2]: no binding (tested: supernatant 1/100); binding result [3]: no binding (tested: supernatant 1/100); binding result [4]: no binding (tested: supernatant 1/100)
B2				binding result [2]: no binding (tested: supernatant 1/100); binding result [3]: no binding (tested: supernatant 1/100); binding result [4]: no binding (tested: supernatant 1/100)
B3	2	0.5		
B4	1.3	5.5	18.2	Kd [8]: 0.9 nM; koff [8]: 2.25e-05 s⁻¹; kon [8]: 23900 M⁻¹ s⁻¹
B5	1.3	851		
B6	1	213		
B7	0.1	0.2		
B8		1420		
B9	0.2	0.3		
B10	0.2	1.7	48.2	kon [8]: 11500 M⁻¹ s⁻¹
B11	0.1	0.3		
B12	1.9	0.5		
B13	0.1	0.3		
B14	1.1	1.5	20.1	Kd [8]: 1 nM; koff [8]: 2.18e-05 s⁻¹; kon [8]: 22000 M⁻¹ s⁻¹
B15	0.1	0.3		
B16	0.8	2.3	66.9	
B17	0.2	1.1	40	Kd [8]: 2 nM; koff [8]: 3.6e-05 s⁻¹; kon [8]: 17600 M⁻¹ s⁻¹

Binder	Relative koff [5]	Relative koff [6]	Kd [7] [nM]	also measured
B18	0.2	1	64.4	
B19	0.6	1230		
B20	0.8	62	48	
B21	0.2	0.2		
B22	0.1	0.2		
B23	0.1	0.3	28.7	Kd [8]: 13.7 nM; koff [8]: 0.000142 s⁻¹; kon [8]: 10400 M⁻¹ s⁻¹
B24	0.8	5.4	80.1	
B25	0.2	0.8	35.1	
B26	0.8	1.4		
B27	0.3	1		
B28	1.1	1.9		
B29	1.1	1.6		
B30	0.1	0.2		
B31	0.6	131		
B32	0.2	0.3		
B33	0.2	0.3		
